{"source": "paper PMC8642297", "molecules": {"B1": {"name": "type II TARP γ5 (C-terminally truncated mouse subunit, Cacng5, residues Ser2-Glu207) (domain or fragment)", "chain": "SACGRKALTLLSSVFAVCGLGLLGIAVSTDYWLYLEEGIILPQNQSTEVKMSLHSGLWRVCFLAGEERGRCFTIEYVMPMNSQMTSESTVNVLKMIRSATPFPLVSLFFMFIGFILSNIGHIRPHRTILAFVSGIFFILSGLSLVVGLVLYISSINDEMLNRTKDAETYFNYKYGWSFAFAAISFLLTESAGVMSVYLFMKRYTAE"}}, "key": {"[1]": {"target": "GluA2 (modified calcium-permeable rat GluA2flip subunit with Q586 at the Q/R-site, GluA2*) (rat)", "assay": "cryo-EM structure"}, "[2]": {"target": "GluA2 (modified calcium-permeable rat GluA2flip subunit with Q586 at the Q/R-site, GluA2*) (rat)", "assay": "cryo-EM structure", "remark": "listed apart in the source"}}}
{"molecule": "GluA2 (modified calcium-permeable rat GluA2flip subunit with Q586 at the Q/R-site, GluA2*) (receptor)", "values": [{"measurement": "stoichiometry N", "setting": "[1]", "result": 4}]}
{"molecule": "B1", "values": [{"measurement": "stoichiometry N (γ5 per GluA2 tetramer)", "setting": "[2]", "result": 2}]}
